Assay results taken from publication PMC11334799.

Legend:
human C3b (human) [1] = target: human C3b (human) (UniProt P01024); assay: BLI
human C3b (human) [2] = target: human C3b (human) (UniProt P01024)

Chain of human C3b (human) (P01024 23-667, chain 1 of 2): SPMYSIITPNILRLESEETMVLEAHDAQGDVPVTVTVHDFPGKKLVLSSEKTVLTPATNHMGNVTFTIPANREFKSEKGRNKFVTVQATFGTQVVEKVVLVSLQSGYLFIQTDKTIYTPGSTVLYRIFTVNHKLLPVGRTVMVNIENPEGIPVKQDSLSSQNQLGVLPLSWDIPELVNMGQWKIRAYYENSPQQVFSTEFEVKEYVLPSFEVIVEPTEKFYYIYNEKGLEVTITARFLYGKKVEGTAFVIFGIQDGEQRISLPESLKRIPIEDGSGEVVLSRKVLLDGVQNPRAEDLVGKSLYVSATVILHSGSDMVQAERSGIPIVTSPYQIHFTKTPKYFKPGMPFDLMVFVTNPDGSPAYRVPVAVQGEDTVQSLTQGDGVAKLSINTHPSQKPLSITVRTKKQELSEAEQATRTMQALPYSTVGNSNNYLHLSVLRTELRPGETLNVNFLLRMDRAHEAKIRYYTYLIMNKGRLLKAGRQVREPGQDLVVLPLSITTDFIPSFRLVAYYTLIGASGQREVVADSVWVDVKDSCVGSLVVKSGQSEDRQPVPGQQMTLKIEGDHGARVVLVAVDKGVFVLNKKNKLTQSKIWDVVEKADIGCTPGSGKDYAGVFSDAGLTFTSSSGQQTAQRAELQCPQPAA
Chain of human C3b (human) (P01024 749-1663, chain 2 of 2): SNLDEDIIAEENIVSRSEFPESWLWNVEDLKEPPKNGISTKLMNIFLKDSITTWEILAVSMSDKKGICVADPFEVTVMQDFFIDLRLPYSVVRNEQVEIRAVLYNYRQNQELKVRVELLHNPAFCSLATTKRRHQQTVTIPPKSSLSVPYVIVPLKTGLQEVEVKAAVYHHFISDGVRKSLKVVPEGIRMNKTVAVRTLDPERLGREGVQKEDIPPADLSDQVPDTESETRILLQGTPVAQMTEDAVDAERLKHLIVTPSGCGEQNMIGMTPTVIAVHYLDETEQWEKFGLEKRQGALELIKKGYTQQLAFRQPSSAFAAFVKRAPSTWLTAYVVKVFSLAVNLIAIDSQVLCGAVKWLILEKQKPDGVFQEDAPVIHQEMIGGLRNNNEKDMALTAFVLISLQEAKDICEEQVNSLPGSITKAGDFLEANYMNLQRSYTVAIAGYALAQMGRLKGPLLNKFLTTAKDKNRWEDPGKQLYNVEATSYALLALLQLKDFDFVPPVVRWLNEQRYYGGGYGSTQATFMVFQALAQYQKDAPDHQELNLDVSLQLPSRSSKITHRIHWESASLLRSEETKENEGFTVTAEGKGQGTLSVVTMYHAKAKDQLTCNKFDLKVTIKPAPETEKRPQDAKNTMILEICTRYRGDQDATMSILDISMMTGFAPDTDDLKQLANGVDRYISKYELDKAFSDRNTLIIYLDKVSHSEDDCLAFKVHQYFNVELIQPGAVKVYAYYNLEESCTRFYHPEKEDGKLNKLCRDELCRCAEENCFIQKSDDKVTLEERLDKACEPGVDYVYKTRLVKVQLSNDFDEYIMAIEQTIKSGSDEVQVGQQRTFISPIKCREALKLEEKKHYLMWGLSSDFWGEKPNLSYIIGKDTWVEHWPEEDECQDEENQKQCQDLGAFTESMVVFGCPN

Kd (human C3b (human) [1]): 4.24 nM
Substance: CG001, (CRIg-FH-IgG4 Fc) x2 (from UniProt Q9Y279 20-283; P08603 18-264) (Fc fusion)
AP-mediated hemolysis of rabbit erythrocytes (12% NHS), IC50 (human C3b (human) [2]): 88.9 nM
AP-mediated hemolysis of rabbit erythrocytes (12% NHS), IC95 (human C3b (human) [2]): 207 nM
CP-mediated hemolysis of sheep erythrocytes (0.2% hemolysin, 1% NHS), IC50 (human C3b (human) [2]): 446 nM
CP-mediated hemolysis of sheep erythrocytes (0.2% hemolysin, 1% NHS), IC95 (human C3b (human) [2]): 34200 nM
